Results: US20240301030A1

Key:
[1] = target: SORLA with C-terminal fusion of the C-terminal fragment of venus fluorescent protein (human) (UniProt Q92673); experiment: cell-based or functional assay
[2] = target: full-length SORLA with C-terminal GFP-tag (human) (UniProt Q92673); experiment: cell-based or functional assay

Mander's coefficient, overlap between the green venus signal specific for SORLA dimers and the total SORLA pool [1] | Mander's coefficient, co-localization between the PLA signal (representing SORLA dimers) and SORLA-GFP (representing both monomers and dimers) [2] | Substance
0.37 | – | SORLA with C-terminal fusion of the N-terminal fragment of venus fluorescent protein, Q92673 82-2214
– | 0.35 | full-length SORLA with C-terminal FLAG-tag, Q92673 82-2214
